Among the data in the Immune Epitope Database (IEDB) are IC50 values, retold here.

Targets include HLA-B*35:01; HLA-B*07:02; HLA-B*57:01; HLA-A*02:01; HLA-B*44:03; HLA-B*53:01.
Assay in all cases: IEDB peptide-MHC binding, purified MHC/competitive/radioactivity; ≥ and ≤ were set here for values at or beyond the usual limits of such assays
Holding throughout (conditions): source organism: Bordetella pertussis

One may read the IC50 as the concentration that gives 50% inhibition.

YDTGDLIAY: the IC50 with HLA-B*35:01 is 69.9 µM.

For the sequence APPGAGFIY, the IC50 with HLA-B*35:01 is 16.5 µM.

In the case of VPFCFGKDL, in the test with HLA-B*07:02, the IC50 was 12.1 µM.

For IVIPPKALF, in the test with HLA-B*57:01, the IC50 came to 45.6 µM.

Consider EHRMQEAVE, for which, in the test with HLA-A*02:01, the concentration for half-maximal inhibition (IC50) was at least 78.1 µM.

Take AGKSLKKKN: the IC50 with HLA-A*02:01 was at least 78.1 µM.

Turning to ECSGKQDCP, the IC50 with HLA-B*07:02 amounted to 69.6 µM.

Regarding FETYALTGI, in the test with HLA-B*44:03, the IC50 came to 35.8 µM.

As to VAAAADLAL, the IC50 with HLA-B*53:01 came out at 21.7 µM.

As for IPFQRALRL, the IC50 with HLA-B*53:01 turned out to be 2.3 µM.

Consider AAAEVAGAL, for which the IC50 amounted to 6.11 µM in the test with HLA-B*07:02, 49.4 µM in the test with HLA-B*44:03 and 69.9 µM with HLA-B*35:01.

With ESAEGRKIF, the IC50 is at least 70.4 µM with HLA-B*57:01 and 36.7 µM in the test with HLA-B*44:03.

Consider VTMRYLASY, for which the half-inhibitory concentration (IC50) turned out to be 0.0142 µM with HLA-B*57:01 and 35.4 µM in the test with HLA-B*35:01.

Consider MEYFKTPLP, for which, in the test with HLA-B*44:03, the IC50 was determined as 28.1 µM.
